Reference: the supplement of paper PMC10126150
± gives the standard deviation of the averaged measurements.

Test system: ATP
Test: switch fluorescence ratio, 500 uM ATP over buffer (Cy3 cluster intensity, sum of 5 cycles each) (fold (ratio)); higher = stronger signal-on switching upon ATP binding; sequences stand for … in TCGTCGGCAGCGTCAGATGTGTATAAGAGACAGTTTTTTTTTTTTTTTTTTTTTTTTT…TC
Conditions: aptamer strand: ATP DNA aptamer (quencher-CACCTGGGGGAGTATTGCGGAGGAAGG + anchor), 100 nM annealed; ATP concentration: 500 uM
How it was run: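 Imaging in selection buffer was followed by imaging after 15 min with 500 uM ATP at 22 °C, for Cy3-labelled switching-strand clusters annealed to 100 nM quencher-labelled ATP aptamer on a modified Illumina MiSeq flow-cell. Five of these buffer/ATP cycles ran, separated by NaOH stripping and re-annealing. The fluorescence ratio per cluster is summed target-cycle over summed buffer-cycle Cy3 intensity, averaged per switch-domain sequence; clusters outside 100-1000 RFU were removed.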
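Also: ATP exposure 15 min at 22 °C before imaging.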

Question: Which switch fluorescence ratio does the source give for TTCGAGTCTT here?
Answer: 0.9742 ± 0.0083

Question: How did the switch fluorescence ratio turn out when TTCGAGTTGT was run?
Answer: 1.006 ± 0.0025

Question: With TTCGATACTT as the sequence, how does the switch fluorescence ratio read?
Answer: 0.9922 ± 0.0059

Question: How did the switch fluorescence ratio turn out when TTCGATTTGG was run?
Answer: 1.03 ± 0.0072

Question: TTCGCGGTCT was tested. Which switch fluorescence ratio did it give?
Answer: 1.11 ± 0.13

Question: Which switch fluorescence ratio does the source give for TTCGCGTTAG here?
Answer: 1.23 ± 0.29

Question: How did the switch fluorescence ratio turn out when TTCGGAATTT was run?
Answer: 0.9882 ± 0.0083

Question: TTCGGAGGGT was tested. Which switch fluorescence ratio did it give?
Answer: 0.9899 ± 0.0088

Question: Which switch fluorescence ratio does the source give for TTCGGAGTTA here?
Answer: 1.09 ± 0.12

Question: How did the switch fluorescence ratio turn out when TTCGGCACGT was run?
Answer: 1.01 ± 0.021

Question: TTCGGCAGTG was tested. Which switch fluorescence ratio did it give?
Answer: 1.022 ± 0.0079

Question: For TTCGGCCCGA, which switch fluorescence ratio is on record?
Answer: 1.01 ± 0.039

Question: Which switch fluorescence ratio does the source give for TTCGGCCGGT here?
Answer: 0.998 ± 0.011

Question: For TTCGGCGGGT, which switch fluorescence ratio is on record?
Answer: 1.03 ± 0.025

Question: How did the switch fluorescence ratio turn out when TTCGGGAATT was run?
Answer: 1.1 ± 0.11

Question: Which switch fluorescence ratio does the source give for TTCGGGAGGT here?
Answer: 1.05 ± 0.13

Question: How did the switch fluorescence ratio turn out when TTCGGGATAG was run?
Answer: 1.07 ± 0.1

Question: How did the switch fluorescence ratio turn out when TTCGGGCCGG was run?
Answer: 1.01 ± 0.033

Question: With TTCGGGCGAA as the sequence, how does the switch fluorescence ratio read?
Answer: 1 ± 0.029

Question: With TTCGGGCGTC as the sequence, how does the switch fluorescence ratio read?
Answer: 1.01 ± 0.039

Question: TTCGGGCGTG was tested. Which switch fluorescence ratio did it give?
Answer: 0.994 ± 0.024

Question: With TTCGGGGGAA as the sequence, how does the switch fluorescence ratio read?
Answer: 0.993 ± 0.075

Question: TTCGGGGGAT was tested. Which switch fluorescence ratio did it give?
Answer: 1.01 ± 0.02

Question: Which switch fluorescence ratio does the source give for TTCGGGGGCT here?
Answer: 1.01 ± 0.071

Question: With TTCGGGGTCC as the sequence, how does the switch fluorescence ratio read?
Answer: 0.99 ± 0.028

Question: Which switch fluorescence ratio does the source give for TTCGGGGTCT here?
Answer: 1.014 ± 0.0098

Question: For TTCGGGTAAG, which switch fluorescence ratio is on record?
Answer: 0.987 ± 0.043

Question: TTCGGGTATG was tested. Which switch fluorescence ratio did it give?
Answer: 1.01 ± 0.013

Question: For TTCGGGTCGG, which switch fluorescence ratio is on record?
Answer: 0.991 ± 0.026

Question: For TTCGGGTGCC, which switch fluorescence ratio is on record?
Answer: 1.03 ± 0.057

Question: How did the switch fluorescence ratio turn out when TTCGGGTTGG was run?
Answer: 1.02 ± 0.015

Question: TTCGGGTTTA was tested. Which switch fluorescence ratio did it give?
Answer: 0.994 ± 0.055

Question: For TTCGGTCTAA, which switch fluorescence ratio is on record?
Answer: 0.979 ± 0.023

Question: TTCGGTTAGC was tested. Which switch fluorescence ratio did it give?
Answer: 1.05 ± 0.041

Question: TTCGGTTCGT was tested. Which switch fluorescence ratio did it give?
Answer: 0.98 ± 0.066

Question: How did the switch fluorescence ratio turn out when TTCGGTTGTA was run?
Answer: 1.009 ± 0.0067

Question: How did the switch fluorescence ratio turn out when TTCGTACGGG was run?
Answer: 1.03 ± 0.021

Question: Which switch fluorescence ratio does the source give for TTCGTAGTTG here?
Answer: 0.992 ± 0.054

Question: Which switch fluorescence ratio does the source give for TTCGTATAAG here?
Answer: 0.9936 ± 0.0076

Question: How did the switch fluorescence ratio turn out when TTCGTATATT was run?
Answer: 1.02 ± 0.017

Question: How did the switch fluorescence ratio turn out when TTCGTATCGG was run?
Answer: 0.978 ± 0.012

Question: TTCGTCAACA was tested. Which switch fluorescence ratio did it give?
Answer: 1.03 ± 0.046

Question: Which switch fluorescence ratio does the source give for TTCGTCAGTT here?
Answer: 0.9992 ± 0.0073

Question: For TTCGTCTGGG, which switch fluorescence ratio is on record?
Answer: 1.03 ± 0.065

Question: With TTCGTGACTT as the sequence, how does the switch fluorescence ratio read?
Answer: 1.02 ± 0.025

Question: Which switch fluorescence ratio does the source give for TTCGTGCCAG here?
Answer: 1.01 ± 0.043

Question: TTCGTGCTTT was tested. Which switch fluorescence ratio did it give?
Answer: 0.995 ± 0.035

Question: Which switch fluorescence ratio does the source give for TTCGTGGTGA here?
Answer: 1.02 ± 0.019

Question: With TTCGTGTCAG as the sequence, how does the switch fluorescence ratio read?
Answer: 0.995 ± 0.023

Question: How did the switch fluorescence ratio turn out when TTCGTTAAGC was run?
Answer: 1.07 ± 0.1

Question: With TTCGTTATTG as the sequence, how does the switch fluorescence ratio read?
Answer: 1.02 ± 0.026

Question: Which switch fluorescence ratio does the source give for TTCGTTCCAT here?
Answer: 0.986 ± 0.012

Question: With TTCGTTCGGG as the sequence, how does the switch fluorescence ratio read?
Answer: 0.992 ± 0.041

Question: With TTCGTTCTTG as the sequence, how does the switch fluorescence ratio read?
Answer: 0.9641 ± 0.0076

Question: How did the switch fluorescence ratio turn out when TTCGTTGATG was run?
Answer: 0.985 ± 0.016

Question: With TTCGTTGGTG as the sequence, how does the switch fluorescence ratio read?
Answer: 0.969 ± 0.035

Question: With TTCGTTGTAA as the sequence, how does the switch fluorescence ratio read?
Answer: 0.98683 ± 0.00096

Question: Which switch fluorescence ratio does the source give for TTCGTTGTGC here?
Answer: 1.01 ± 0.02

Question: Which switch fluorescence ratio does the source give for TTCGTTTCGA here?
Answer: 0.965 ± 0.042

Question: With TTCGTTTCGG as the sequence, how does the switch fluorescence ratio read?
Answer: 1.01 ± 0.037

Question: TTCGTTTGCA was tested. Which switch fluorescence ratio did it give?
Answer: 1.38 ± 0.64

Question: With TTCTACAGTA as the sequence, how does the switch fluorescence ratio read?
Answer: 1.036 ± 0.0059

Question: For TTCTACGGTC, which switch fluorescence ratio is on record?
Answer: 1.01 ± 0.03

Question: TTCTAGGGGG was tested. Which switch fluorescence ratio did it give?
Answer: 1.02 ± 0.056

Question: TTCTAGGTCT was tested. Which switch fluorescence ratio did it give?
Answer: 1.02 ± 0.037

Question: How did the switch fluorescence ratio turn out when TTCTAGTAA was run?
Answer: 0.998 ± 0.021

Question: For TTCTATATTG, which switch fluorescence ratio is on record?
Answer: 0.996 ± 0.023

Question: How did the switch fluorescence ratio turn out when TTCTATGGCA was run?
Answer: 0.984 ± 0.043

Question: Which switch fluorescence ratio does the source give for TTCTATTACC here?
Answer: 1.01 ± 0.032

Question: Which switch fluorescence ratio does the source give for TTCTATTTCG here?
Answer: 1 ± 0.019

Question: Which switch fluorescence ratio does the source give for TTCTCAGAGG here?
Answer: 1.01 ± 0.029

Question: How did the switch fluorescence ratio turn out when TTCTCAGCAA was run?
Answer: 2.43 ± 0.64

Question: For TTCTCATTTT, which switch fluorescence ratio is on record?
Answer: 1.01 ± 0.029

Question: For TTCTCTATGT, which switch fluorescence ratio is on record?
Answer: 1.01 ± 0.035

Question: With TTCTCTTTTT as the sequence, how does the switch fluorescence ratio read?
Answer: 1.02 ± 0.036

Question: For TTCTGAGCTT, which switch fluorescence ratio is on record?
Answer: 1.07 ± 0.025

Question: How did the switch fluorescence ratio turn out when TTCTGCGGGG was run?
Answer: 1.04 ± 0.046

Question: TTCTGCTTAG was tested. Which switch fluorescence ratio did it give?
Answer: 2.04 ± 0.039

Question: TTCTGGATGT was tested. Which switch fluorescence ratio did it give?
Answer: 0.956 ± 0.023

Question: TTCTGGTTGT was tested. Which switch fluorescence ratio did it give?
Answer: 0.987 ± 0.046

Question: How did the switch fluorescence ratio turn out when TTCTGGTTTG was run?
Answer: 0.975 ± 0.043

Question: For TTCTGGTTTT, which switch fluorescence ratio is on record?
Answer: 0.9727 ± 0.0026

Question: TTCTGTGGGA was tested. Which switch fluorescence ratio did it give?
Answer: 1.002 ± 0.006

Question: Which switch fluorescence ratio does the source give for TTCTGTGGGT here?
Answer: 0.955 ± 0.057

Question: Which switch fluorescence ratio does the source give for TTCTGTTAAC here?
Answer: 1.01 ± 0.025
